Measurements taken from paper PMC13182210, “Time‐Resolved Native Mass Spectrometry Reveals Reversible Light‐Driven Oligomerization of Arabidopsis Cryptochrome 1 and Its Antagonism by BIC1” (Angewandte Chemie (International Ed. in English), 2026).
Each block holds one molecule with its values, some of them ahead of it.

B1: Blue-light Inhibitor of Cryptochromes 1 (BIC1) (natural protein, UniProt Q9LXJ1 1-140, looked up)
chain: MMNIDDTTSPMAHPIGPSQPPSDQTKQDPPSLPQEAASSVSADKKDLALLEEKPKQSQEEDRVDTGRERLKKHRREIAGRVWIPEIWGQEELLKDWIDCSTFDTCLVPAGISSARTALVEEARRAASASGGLHNRCLILR
notes: The calculated mass may include a tag; Construct details probably stand in the Supporting Information
B2: Arabidopsis thaliana cryptochrome 1 photolyase homology region (CRY1-PHR) (domain or fragment, UniProt Q43125 1-509, looked up)
chain: MSGSVSGCGSGGCSIVWFRRDLRVEDNPALAAAVRAGPVIALFVWAPEEEGHYHPGRVSRWWLKNSLAQLDSSLRSLGTCLITKRSTDSVASLLDVVKSTGASQIFFNHLYDPLSLVRDHRAKDVLTAQGIAVRSFNADLLYEPWEVTDELGRPFSMFAAFWERCLSMPYDPESPLLPPKKIISGDVSKCVADPLVFEDDSEKGSNALLARAWSPGWSNGDKALTTFINGPLLEYSKNRRKADSATTSFLSPHLHFGEVSVRKVFHLVRIKQVAWANEGNEAGEESVNLFLKSIGLREYSRYISFNHPYSHERPLLGHLKFFPWAVDENYFKAWRQGRTGYPLVDAGMRELWATGWLHDRIRVVVSSFFVKVLQLPWRWGMKYFWDTLLDADLESDALGWQYITGTLPDSREFDRIDNPQFEGYKFDPNGEYVRRWLPELSRLPTDWIHHPWNAPESVLQAAGIELGSNYPLPIVGLDEAKARLHEALSQMWQLEAASRAAIENGSEEG
notes: Cryptochrome 1 of Arabidopsis thaliana, photolyase homology region (PHR) domain; Construct limits, tags and host are not in the main text and probably stand in the Supporting Information; The oligomeric state depends on light: mostly monomer in the dark, tetramer under blue light; also called CRY1 PHR domain; wild-type CRY1; source: recombinant, purified

Assays:
[1] = biological target: CRY1^L407F mutant of the Arabidopsis CRY1 PHR domain (Arabidopsis thaliana) (UniProt Q43125); assay: native MS; LILBID-MS in darkness; CRY1 alone or with BIC1 in an equimolar ratio
[2] = biological target: CRY1^L407F mutant of the Arabidopsis CRY1 PHR domain (Arabidopsis thaliana) (UniProt Q43125); assay: SEC; analytical size exclusion chromatography, samples kept in darkness
[3] = biological target: CRY1^L407F mutant of the Arabidopsis CRY1 PHR domain (Arabidopsis thaliana) (UniProt Q43125); assay: native MS; quantitative LILBID-MS (qLILBID-MS), label-free, in the dark; mean of three measurements
[4] = biological target: B2; assay: as above; conditions: both partners purified
[5] = biological target: B2; assay: native MS; quantitative LILBID-MS (qLILBID-MS), label-free, under blue light; mean of three measurements; conditions: both partners purified
[6] = biological target: the molecule itself; assay: native MS; nESI-MS with a blue-light LED on the sample, static and time-resolved, room temperature, no ATP; two-step reversible kinetic model monomer to dimer to tetramer
[7] = biological target: the molecule itself; assay: native MS; nESI-MS with a blue-light LED on the sample, static and time-resolved, with 100 µM ATP; two-step reversible kinetic model monomer to dimer to tetramer
[8] = biological target: the molecule itself; assay: native MS; LILBID-MS with a blue-light LED on the sample throughout; CRY1 alone, with BIC1 in an equimolar ratio, or BIC1 added to pre-illuminated tetrameric CRY1

- stoichiometry N [1]: 4
- stoichiometry N [2]: 4
Molecule: CRY1^L407F mutant of the Arabidopsis CRY1 PHR domain (from UniProt Q43125 1-681) (domain or fragment)

Molecule: B1
- Kd [3]: 100 nM
- Kd [4]: ~1200 nM
- Kd [5]: 130 ± 90 nM

Molecule: B2
- half-life of tetramer formation (single-exponential fit) [6]: ~18 s
- fold decrease of dimer dissociation rate with 100 µM ATP against no ATP [7]: ~10 fold
- fold decrease of tetramer dissociation rate with 100 µM ATP against no ATP [7]: ~2 fold
- fold increase of dimer-to-tetramer association rate with 100 µM ATP against no ATP [7]: 4 fold
- fold increase of monomer-to-dimer association rate with 100 µM ATP against no ATP [7]: ~2 fold
- stoichiometry N [8]: 4
